Assay results published in US8765433B2, “Alcohol dehydrogenases (ADH) useful for fermentive production of lower alkyl alcohols” (priority 2009, dated 2014).

Tested on: CC(C)C=O
Assay: isobutyraldehyde reduction kinetics (A340, initial rates)
Type: biochemical, Mucor circinelloides
Conditions: other: 30° C., pH 7.0, NADH specific
Excerpt: This example describes preparation of ADH-gene constructs for over-expression/purification and measurement of enzyme activities using a time-course assay. Horse-liver ADH (HLADH; A-6128) was purchased from Sigma. Achromobacter xylosoxidans SadB (SadB), Saccharomyces cerevisiae ADH6 (ScADH6) and ADH7 (ScADH7), Entamoeba histolytica ADH1 (EhADH1), Bos Taurus Aldehyde Reductase (BtARD), Beijerinckia indica subsp. Indica ATCC 9039 (BiADH), Clostridium beijerinckii ADH (CbADH), Rana perezi ADH8 (RpADH8), Rattus norvegicus ADH1 (RnADH1), Thermus sp. ATN1 ADH (TADH), Phenylobacterium zucineum HLK1 ADH (PzADH), Methylocella silvestris BL2 ADH (MsADH), Acinetobacter baumannii AYE ADH (AbADH), Geobacillus sp. WCH70 ADH (GbADH), Vanderwaltozyma polyspora DSM 70294 ADH (VpADH), Mucor circinelloides ADH (McADH), and Rhodococcus erythropolis PR4ADH (ReADH) were the candidates for which subclones were prepared for protein expression and purification.
As a routine practice, the crude extracts and purified proteins were assayed for butanol oxidation activity, in order to ensure that the recombinant proteins were active throughout the purification process. […] Alcohol oxidation activities were carried out in 50 mM sodium phosphate buffer at pH 8.8 and aldehyde reduction reactions were assayed in 190 mM potassium phosphate buffer at pH 7.0. […]
Kinetic constants of the ADH enzymes were calculated and compared to identify those candidate ADH enzymes with the most desirable properties for the conversion of isobutyraldehyde to isobutanol in the last step of the engineered pathway for isobutanol production. […] The kcat/KM is derived from the individual numbers of kcat and KM and not an experimentally determined value. […]
Seven additional candidate ADH enzymes were synthesized, expressed, and assayed according to methods such as described in Example 2. […] A comparison of KM, KI, and kcat/KM for each candidate enzyme as compared to the same parameter for SadB are given in Table 9 as a percentage of the values determined (Table 7) for SadB. […]

With “Mucor circinelloides ADH (McADH), SEQ ID NO: 39 (Mucor circinelloides)” the Km was 30 mM, the kcat was 151 s⁻¹ and the kcat/Km was 5000 M⁻¹ s⁻¹.
